From patent publication JP2018108089A (dated 2018)

Legend:
[1] = molecular target: T1, human tissue factor pathway inhibitor (TFPI) (human, UniProt P10646 29-304, limits assumed); experiment: ELISA, Fab from bacterial lysate on coated human TFPI
T1 construct: Bought protein; also called human TFPI; hTFPI
T1 sequence (looked up): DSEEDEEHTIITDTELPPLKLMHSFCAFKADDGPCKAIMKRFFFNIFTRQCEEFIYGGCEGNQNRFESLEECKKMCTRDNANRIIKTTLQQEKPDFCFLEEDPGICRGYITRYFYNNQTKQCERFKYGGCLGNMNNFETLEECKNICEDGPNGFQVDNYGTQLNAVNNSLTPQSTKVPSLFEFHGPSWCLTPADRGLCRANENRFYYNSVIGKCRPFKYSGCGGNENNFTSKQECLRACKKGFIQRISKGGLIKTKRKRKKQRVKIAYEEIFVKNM

[2] = molecular target: T1, human tissue factor pathway inhibitor …; experiment: ELISA on coated human TFPI
[3] = molecular target: T2, mouse tissue factor pathway inhibitor (TFPI) (mouse, UniProt O54819 29-289, limits assumed); experiment: ELISA on coated mouse TFPI
T2 construct: Bought protein; also called mouse TFPI; mTFPI
T2 sequence (looked up): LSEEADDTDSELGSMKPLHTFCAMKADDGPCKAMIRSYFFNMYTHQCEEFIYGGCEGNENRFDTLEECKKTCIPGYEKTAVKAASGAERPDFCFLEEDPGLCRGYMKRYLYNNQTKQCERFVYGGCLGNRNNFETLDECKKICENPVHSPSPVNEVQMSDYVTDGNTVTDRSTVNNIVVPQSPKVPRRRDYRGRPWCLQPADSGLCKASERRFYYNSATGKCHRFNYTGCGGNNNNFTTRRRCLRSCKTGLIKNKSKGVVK

[4] = molecular target: T1, human tissue factor pathway inhibitor …; experiment: ELISA on coated human TFPI, IgG against Fab
[5] = molecular target: T2, mouse tissue factor pathway inhibitor …; experiment: ELISA on coated mouse TFPI, IgG against Fab

B1: TP-2A8 (Fab, V domains shown)
VH: QVQLVESGGGLVQPGGSLRLSCAASGFTFRSYGMSWVRQAPGKGLEWVSSIRGSSSSTYYADSVKGRFTISRDNSKNTLYLQMNSLRAEDTAVYYCARKYRYWFDYWGQGTLVTVSS
VL: DIELTQPPSVSVAPGQTARISCSGDNLRNYYAHWYQQKPGQAPVVVIYYDNNRPSGIPERFSGSNSGNTATLTISGTQAEDEADYYCQSWDDGVPVFGGGTKLTVLG
notes: Human Fab (HuCAL Gold, E. coli TG1); also called Fab-2A8; TP-2A8-Fab
**Q.** Does B1 bind [1]?
**A.** Result: binds

B2: TP-4B7 (Fab, V domains shown)
VH: QVQLQQSGPGLVKPSQTLSLTCAISGDSVSSNSAAWSWIRQSPGRGLEWLGIIYKRSKWYNDYAVSVKSRITINPDTSKNQFSLQLNSVTPEDTAVYYCARWHSDKHWGFDYWGQGTLVTVSS
VL: DIVMTQSPLSLPVTPGEPASISCRSSQSLVFSDGNTYLNWYLQKPGQSPQLLIYKGSNRASGVPDRFSGSGSGTDFTLKISRVEAEDVGVYYCQQYDSYPLTFGQGTKVEIKR
notes: Human Fab (HuCAL Gold, E. coli TG1)
**Q.** Does B2 bind [1]?
**A.** Result: binds

B3: TP-2G6 (Fab, V domains shown)
VH: QVQLQQSGPGLVKPSQTLSLTCAISGDSVSSSSAAWSWIRQSPGRGLEWLGIIYYRSKWYNDYAVSVKSRITINPDTSKNQFSLQLNSVTPEDTAVYYCARHSMVGFDVWGQGTLVTVSS
VL: DIVLTQSPATLSLSPGERATLSCRASQYVTSSYLAWYQQKPGQAPRLLIYGSSRATGVPARFSGSGSGTDFTLTISSLEPEDFATYYCQQYSSSPITFGQGTKVEIKR
notes: Human Fab (HuCAL Gold, E. coli TG1); also called 2G6-Fab
**Q.** B3 was tested. Which EC50 [2] did it give?
**A.** The EC50 was 0.48 nM.

**Q.** What about the EC50 [3] of the same binder?
**A.** Its EC50 is 5.18 nM.

B4: 2G6-IgG (antibody, V domains shown)
VH: QVQLQQSGPGLVKPSQTLSLTCAISGDSVSSSSAAWSWIRQSPGRGLEWLGIIYYRSKWYNDYAVSVKSRITINPDTSKNQFSLQLNSVTPEDTAVYYCARHSMVGFDVWGQGTLVTVSS
VL: DIVLTQSPATLSLSPGERATLSCRASQYVTSSYLAWYQQKPGQAPRLLIYGSSRATGVPARFSGSGSGTDFTLTISSLEPEDFATYYCQQYSSSPITFGQGTKVEIKR
notes: Chimeric IgG: variable regions of TP-2G6 on mouse IgG1 constant regions, expressed in HKB11 cells; also called IgG-2G6; TP-2G6 after conversion to IgG
**Q.** Which results are given for B4?
**A.** EC50 [2]: 0.22 nM; EC50 [3]: 0.51 nM; fold improvement of EC50 against 2G6-Fab [4]: 2 fold; fold improvement of EC50 against 2G6-Fab [5]: 10 fold
